The FLAb antibody collection (doi:10.7554/elife.23156)

B1: scFv; the commonest letter at each place (parent)
chain 1: EVKLDETGGGLVQPGRPMKLSCVASGFTFSDYWMNWVRQSPEKGLEWVAQIRNKPYNYETYYSDSVKGRFTISRDDSKSSVYLQMNNLRVEDMGIYYCTGSYYGMDYWGQGTSVTVS
chain 2: DVVMTQTPLSLPVSLGDQASISCRSSQSLVHSNGNTYLRWYLQKPGQSPKVLIYKVSNRFSGVPDRFSGSGSGTDFTLKISRVEAEDLGVYFCSQSTHVPWTFGGGTKLEIK

What was measured:
fluorescein = variants of: B1; assay: Kd (Tite-Seq); settings: with fluorescein; format: scFv 4-4-20, heavy + light
[1] = variants of: B1; assay: yeast surface expression (ratio to wild type); higher = more expressed; settings: format: scFv 4-4-20, heavy + light

## chain 1 T28P S30N
fluorescein
  Kd: 0.000989 µM
[1]
  yeast surface expression: 1.1

## chain 1 F29Y M34K
fluorescein
  Kd: ≥ 10 µM
[1]
  yeast surface expression: 0.646

## chain 1 S30Y V37H
fluorescein
  Kd: ≥ 10 µM
[1]
  yeast surface expression: 0.57

## chain 1 W33Q N35Y
fluorescein
  Kd: ≥ 10 µM
[1]
  yeast surface expression: 0.315

## chain 1 D31L Y32M W36M
fluorescein
  Kd: ≥ 10 µM
[1]
  yeast surface expression: 0.543

## chain 1 F29V W36S
fluorescein
  Kd: ≥ 10 µM
[1]
  yeast surface expression: 0.52

## chain 1 D106L G109C
fluorescein
  Kd: ≥ 10 µM
[1]
  yeast surface expression: 0.166

## chain 1 F29V N35V
fluorescein
  Kd: ≥ 10 µM
[1]
  yeast surface expression: 0.239

## chain 1 M34Y N35R
fluorescein
  Kd: ≥ 10 µM
[1]
  yeast surface expression: 0.505

## chain 1 S30P V37Y
fluorescein
  Kd: 0.0729 µM
[1]
  yeast surface expression: 1.25

## chain 1 S30Q V37E
fluorescein
  Kd: ≥ 10 µM
[1]
  yeast surface expression: 0.892

## chain 1 G100V Y107H
fluorescein
  Kd: ≥ 10 µM
[1]
  yeast surface expression: 0.772

## chain 1 F29R S30L
fluorescein
  Kd: ≥ 10 µM
[1]
  yeast surface expression: 0.654

## chain 1 F29H W36Q
fluorescein
  Kd: ≥ 10 µM
[1]
  yeast surface expression: 0.693

## chain 1 S101I
fluorescein
  Kd: ≥ 10 µM
[1]
  yeast surface expression: 0.521

## chain 1 S101V
fluorescein
  Kd: ≥ 10 µM
[1]
  yeast surface expression: 0.496

## chain 1 M34S W36A
fluorescein
  Kd: ≥ 10 µM
[1]
  yeast surface expression: 0.437

## chain 1 S101T G104F
fluorescein
  Kd: ≥ 10 µM
[1]
  yeast surface expression: 0.437

## chain 1 S30L W33D
fluorescein
  Kd: ≥ 10 µM
[1]
  yeast surface expression: 0.844

## chain 1 Y102A M105F
fluorescein
  Kd: 0.00575 µM
[1]
  yeast surface expression: 0.979

## chain 1 Y102W Y107W
fluorescein
  Kd: 0.00158 µM
[1]
  yeast surface expression: 0.797

## chain 1 S101I Y103T W108D
fluorescein
  Kd: ≥ 10 µM
[1]
  yeast surface expression: 0.293

## chain 1 S101R D106N
fluorescein
  Kd: ≥ 10 µM
[1]
  yeast surface expression: 0.225

## chain 1 Y102E D106S
fluorescein
  Kd: ≥ 10 µM
[1]
  yeast surface expression: 1.01

## chain 1 Y102E D106M
fluorescein
  Kd: ≥ 10 µM
[1]
  yeast surface expression: 0.531

## chain 1 M34D N35Q
fluorescein
  Kd: ≥ 10 µM
[1]
  yeast surface expression: 1.78

## chain 1 Y103D W108H
fluorescein
  Kd: 3.74 µM
[1]
  yeast surface expression: 0.708

## chain 1 G104F D106K
fluorescein
  Kd: ≥ 10 µM
[1]
  yeast surface expression: 0.201

## chain 1 M105R D106N
fluorescein
  Kd: 0.61 µM
[1]
  yeast surface expression: 0.717

## chain 1 N35Y W36Y V37D
fluorescein
  Kd: ≥ 10 µM
[1]
  yeast surface expression: 1.04

## chain 1 G100D S101W
fluorescein
  Kd: ≥ 10 µM
[1]
  yeast surface expression: 0.171

## chain 1 W33H M34V V37L
fluorescein
  Kd: ≥ 10 µM
[1]
  yeast surface expression: 0.434

## chain 1 T28Q N35R
fluorescein
  Kd: ≥ 10 µM
[1]
  yeast surface expression: 0.537

## chain 1 G104H Y107R
fluorescein
  Kd: ≥ 10 µM
[1]
  yeast surface expression: 0.518

## chain 1 S30E
fluorescein
  Kd: 0.000962 µM
[1]
  yeast surface expression: 0.948

## chain 1 S30D
fluorescein
  Kd: 0.00205 µM
[1]
  yeast surface expression: 0.919

## chain 1 Y103E Y107V
fluorescein
  Kd: ≥ 10 µM
[1]
  yeast surface expression: 1.07

## chain 1 G104I Y107D
fluorescein
  Kd: ≥ 10 µM
[1]
  yeast surface expression: 0.2

## chain 1 Y32A W33I M34T
fluorescein
  Kd: ≥ 10 µM
[1]
  yeast surface expression: 0.444

## chain 1 G100H W108F
fluorescein
  Kd: 0.00746 µM
[1]
  yeast surface expression: 0.392

## chain 1 Y103I
fluorescein
  Kd: 0.018 µM
[1]
  yeast surface expression: 0.964

## chain 1 S30I D31H W33C
fluorescein
  Kd: ≥ 10 µM
[1]
  yeast surface expression: 0.449

## chain 1 G104L W108R
fluorescein
  Kd: ≥ 10 µM
[1]
  yeast surface expression: 0.278

## chain 1 M34W N35M
fluorescein
  Kd: ≥ 10 µM
[1]
  yeast surface expression: 0.653

## chain 1 D31V W33K
fluorescein
  Kd: ≥ 10 µM
[1]
  yeast surface expression: 0.795

## chain 1 F29L W33A
fluorescein
  Kd: ≥ 10 µM
[1]
  yeast surface expression: 0.763

## chain 1 D31N Y32M
fluorescein
  Kd: 0.00672 µM
[1]
  yeast surface expression: 0.945

## chain 1 G104F G109W
fluorescein
  Kd: ≥ 10 µM
[1]
  yeast surface expression: 0.0981

## chain 1 G109A
fluorescein
  Kd: 0.0525 µM
[1]
  yeast surface expression: 0.719

## chain 1 G109L
fluorescein
  Kd: ≥ 10 µM
[1]
  yeast surface expression: 0.217

## chain 1 G109I
fluorescein
  Kd: ≥ 10 µM
[1]
  yeast surface expression: 0.269

## chain 1 S30C M34V
fluorescein
  Kd: 0.00827 µM
[1]
  yeast surface expression: 0.65

## chain 1 Y32L W36F
fluorescein
  Kd: ≥ 10 µM
[1]
  yeast surface expression: 0.728

## chain 1 G100R S101I
fluorescein
  Kd: ≥ 10 µM
[1]
  yeast surface expression: 0.352

## chain 1 D31C N35Y
fluorescein
  Kd: ≥ 10 µM
[1]
  yeast surface expression: 0.763

## chain 1 G100D Y102S
fluorescein
  Kd: ≥ 10 µM
[1]
  yeast surface expression: 0.289

## chain 1 W33E M34L
fluorescein
  Kd: ≥ 10 µM
[1]
  yeast surface expression: 0.721

## chain 1 M34K W36F
fluorescein
  Kd: ≥ 10 µM
[1]
  yeast surface expression: 1.23

## chain 1 Y102H Y103E
fluorescein
  Kd: 0.195 µM
[1]
  yeast surface expression: 1.17

## chain 1 F29Q S30G
fluorescein
  Kd: 0.0391 µM
[1]
  yeast surface expression: 0.863

## chain 1 Y103D G109R
fluorescein
  Kd: ≥ 10 µM
[1]
  yeast surface expression: 0.269

## chain 1 D31I W33D
fluorescein
  Kd: ≥ 10 µM
[1]
  yeast surface expression: 0.632

## chain 1 Y103W G104P
fluorescein
  Kd: ≥ 10 µM
[1]
  yeast surface expression: 1

## chain 1 T28F M34A
fluorescein
  Kd: 0.0189 µM
[1]
  yeast surface expression: 0.566

## chain 1 M105A W108Q
fluorescein
  Kd: ≥ 10 µM
[1]
  yeast surface expression: 0.38

## chain 1 Y103Q G104N
fluorescein
  Kd: ≥ 10 µM
[1]
  yeast surface expression: 0.905

## chain 1 W36M V37W
fluorescein
  Kd: ≥ 10 µM
[1]
  yeast surface expression: 0.496

## chain 1 W36T V37D
fluorescein
  Kd: ≥ 10 µM
[1]
  yeast surface expression: 0.28

## chain 1 Y102I
fluorescein
  Kd: 0.00279 µM
[1]
  yeast surface expression: 1.16

## chain 1 Y102K
fluorescein
  Kd: 0.021 µM
[1]
  yeast surface expression: 0.81

## chain 1 Y103L G109S
fluorescein
  Kd: 0.167 µM
[1]
  yeast surface expression: 0.855

## chain 1 S101L M105D D106L
fluorescein
  Kd: ≥ 10 µM
[1]
  yeast surface expression: 0.276

## chain 1 Y32P M34N
fluorescein
  Kd: ≥ 10 µM
[1]
  yeast surface expression: 0.503

## chain 1 M105E D106C
fluorescein
  Kd: ≥ 10 µM
[1]
  yeast surface expression: 0.779

## chain 1 Y102L G104C
fluorescein
  Kd: ≥ 10 µM
[1]
  yeast surface expression: 0.323

## chain 1 Y32Q M34I
fluorescein
  Kd: ≥ 10 µM
[1]
  yeast surface expression: 0.765

## chain 1 Y32H N35T
fluorescein
  Kd: ≥ 10 µM
[1]
  yeast surface expression: 0.813

## chain 1 S30Q D31E N35K
fluorescein
  Kd: ≥ 10 µM
[1]
  yeast surface expression: 2.59

## chain 1 F29I N35P
fluorescein
  Kd: ≥ 10 µM
[1]
  yeast surface expression: 2.62

## chain 1 Y102K G109Y
fluorescein
  Kd: ≥ 10 µM
[1]
  yeast surface expression: 0.342

## chain 1 Y102K G109I
fluorescein
  Kd: ≥ 10 µM
[1]
  yeast surface expression: 0.226

## chain 1 Y102M M105T W108T
fluorescein
  Kd: ≥ 10 µM
[1]
  yeast surface expression: 0.539

## chain 1 Y102S G109S
fluorescein
  Kd: 0.00293 µM
[1]
  yeast surface expression: 1.12

## chain 1 Y102H Y107F G109K
fluorescein
  Kd: ≥ 10 µM
[1]
  yeast surface expression: 0.242

## chain 1 W108S
fluorescein
  Kd: 0.0158 µM
[1]
  yeast surface expression: 0.51

## chain 1 W108L
fluorescein
  Kd: ≤ 0.000316 µM
[1]
  yeast surface expression: 0.827

## chain 1 W108Y
fluorescein
  Kd: ≤ 0.000316 µM
[1]
  yeast surface expression: 0.963

## chain 1 M34H N35I
fluorescein
  Kd: ≥ 10 µM
[1]
  yeast surface expression: 0.552

## chain 1 F29Q Y32L
fluorescein
  Kd: ≥ 10 µM
[1]
  yeast surface expression: 0.881

## chain 1 D106K G109L
fluorescein
  Kd: ≥ 10 µM
[1]
  yeast surface expression: 0.324

## chain 1 Y103C G109Y
fluorescein
  Kd: ≥ 10 µM
[1]
  yeast surface expression: 0.494

## chain 1 Y103P W108Y
fluorescein
  Kd: ≥ 10 µM
[1]
  yeast surface expression: 0.364

## chain 1 Y32C M34T
fluorescein
  Kd: ≥ 10 µM
[1]
  yeast surface expression: 0.664

## chain 1 W36H
fluorescein
  Kd: ≥ 10 µM
[1]
  yeast surface expression: 0.522

## chain 1 G100V Y103F
fluorescein
  Kd: 0.876 µM
[1]
  yeast surface expression: 0.679

## chain 1 G100A S101F
fluorescein
  Kd: ≥ 10 µM
[1]
  yeast surface expression: 0.652

## chain 1 S101Y Y102G
fluorescein
  Kd: ≥ 10 µM
[1]
  yeast surface expression: 0.796

## chain 1 F29Y N35W
fluorescein
  Kd: ≥ 10 µM
[1]
  yeast surface expression: 0.0981

## chain 1 F29Y N35A
fluorescein
  Kd: ≥ 10 µM
[1]
  yeast surface expression: 0.842

## chain 1 S30M Y32H
fluorescein
  Kd: 0.0729 µM
[1]
  yeast surface expression: 0.872

## chain 1 S30W D31V
fluorescein
  Kd: ≥ 10 µM
[1]
  yeast surface expression: 0.463

## chain 1 G100P S101T
fluorescein
  Kd: ≥ 10 µM
[1]
  yeast surface expression: 0.486

## chain 1 Y102W G109V
fluorescein
  Kd: ≥ 10 µM
[1]
  yeast surface expression: 0.19

## chain 1 F29D V37D
fluorescein
  Kd: ≥ 10 µM
[1]
  yeast surface expression: 0.557

## chain 1 Y103C G104H
fluorescein
  Kd: 2.01 µM
[1]
  yeast surface expression: 0.403

## chain 1 M34G V37R
fluorescein
  Kd: ≥ 10 µM
[1]
  yeast surface expression: 1.62

## chain 1 S101C G104N G109R
fluorescein
  Kd: ≥ 10 µM
[1]
  yeast surface expression: 0.263

## chain 1 M105V
fluorescein
  Kd: 4.25 µM
[1]
  yeast surface expression: 0.993

## chain 1 M105A
fluorescein
  Kd: ≥ 10 µM
[1]
  yeast surface expression: 1.01

## chain 1 M105W
fluorescein
  Kd: 0.00251 µM
[1]
  yeast surface expression: 0.648

## chain 1 S101E G104K M105C
fluorescein
  Kd: ≥ 10 µM
[1]
  yeast surface expression: 0.346

## chain 1 N35W V37G
fluorescein
  Kd: 0.021 µM
[1]
  yeast surface expression: 1.18

## chain 1 M105S G109T
fluorescein
  Kd: ≥ 10 µM
[1]
  yeast surface expression: 0.527

## chain 1 S101L M105L
fluorescein
  Kd: ≥ 10 µM
[1]
  yeast surface expression: 0.334

## chain 1 M105I W108V
fluorescein
  Kd: 0.000724 µM
[1]
  yeast surface expression: 0.782

## chain 1 D31S Y32W
fluorescein
  Kd: ≥ 10 µM
[1]
  yeast surface expression: 0.83
